Measurements from US20040254351A1 (published 2004).

T1: G-CSF receptor
T1 sequence (Q99062 whole entry, species assumed, looked up): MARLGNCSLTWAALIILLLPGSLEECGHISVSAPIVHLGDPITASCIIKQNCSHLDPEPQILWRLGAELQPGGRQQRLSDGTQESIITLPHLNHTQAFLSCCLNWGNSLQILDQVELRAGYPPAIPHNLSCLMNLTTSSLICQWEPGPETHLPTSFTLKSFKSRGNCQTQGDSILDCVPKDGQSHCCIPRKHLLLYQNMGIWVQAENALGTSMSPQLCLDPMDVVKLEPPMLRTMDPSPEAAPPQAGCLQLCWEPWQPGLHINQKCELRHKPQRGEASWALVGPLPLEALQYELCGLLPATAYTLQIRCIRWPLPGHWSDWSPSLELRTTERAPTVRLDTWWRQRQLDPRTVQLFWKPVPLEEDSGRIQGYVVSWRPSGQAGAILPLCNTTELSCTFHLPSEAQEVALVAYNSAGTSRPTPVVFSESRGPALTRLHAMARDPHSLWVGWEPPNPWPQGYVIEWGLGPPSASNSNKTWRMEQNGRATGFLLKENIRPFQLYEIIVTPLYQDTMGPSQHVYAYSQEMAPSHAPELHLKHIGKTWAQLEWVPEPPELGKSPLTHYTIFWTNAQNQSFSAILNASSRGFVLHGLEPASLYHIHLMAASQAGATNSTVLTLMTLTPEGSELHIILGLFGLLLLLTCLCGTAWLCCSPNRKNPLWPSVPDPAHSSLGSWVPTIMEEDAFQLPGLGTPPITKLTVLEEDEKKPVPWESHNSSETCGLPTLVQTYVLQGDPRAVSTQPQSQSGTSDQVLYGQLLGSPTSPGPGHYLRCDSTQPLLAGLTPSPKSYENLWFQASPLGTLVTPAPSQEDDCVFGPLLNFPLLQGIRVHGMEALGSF


Each binder was assayed against T1, G-CSF receptor (assay: cell-based or functional assay).

Row | Binder | EC50/Neupogen (reporter activity in cells expressing the G-CSF receptor)
1 | G-CSF[E93N,I95T] (ligand, consensus N-linked glycosylation site at Asn 93 (region 10)) TPLGPASSLPQSFLLKALEQVRKIQGDGAALQEKLCATYKLCHPEELVLLGHSLGIPWAPLSSCPSQALQLAGCLSQLHSGLFLYQGLLQALNGTSPELGPTLDTLQLDVADFATTIWQQMEELGMAPALQPTQGAMPAFASAFQRRAGGVLVASHLQSFLEVSYRVLRHLAQP | 0.36 ratio to Neupogen
2 | G-CSF[A37N,Y39T] (ligand, consensus N-linked glycosylation site at Asn 37 (region 1)) TPLGPASSLPQSFLLKALEQVRKIQGDGAALQEKLCNTTKLCHPEELVLLGHSLGIPWAPLSSCPSQALQLAGCLSQLHSGLFLYQGLLQALEGISPELGPTLDTLQLDVADFATTIWQQMEELGMAPALQPTQGAMPAFASAFQRRAGGVLVASHLQSFLEVSYRVLRHLAQP | 0.8 ratio to Neupogen
3 | G-CSF[A141N,A143T] (ligand, consensus N-linked glycosylation site at Asn 141 (region 14)) TPLGPASSLPQSFLLKALEQVRKIQGDGAALQEKLCATYKLCHPEELVLLGHSLGIPWAPLSSCPSQALQLAGCLSQLHSGLFLYQGLLQALEGISPELGPTLDTLQLDVADFATTIWQQMEELGMAPALQPTQGAMPAFNSTFQRRAGGVLVASHLQSFLEVSYRVLRHLAQP | 0.54 ratio to Neupogen
4 | G-CSF[A37N,Y39T,P57V,W58N,P60T,Q67N,L69T] (ligand, consensus N-linked glycosylation sites at Asn 37, Asn 58 and Asn 67 (regions 1, 2 and 9)) TPLGPASSLPQSFLLKALEQVRKIQGDGAALQEKLCNTTKLCHPEELVLLGHSLGIVNATLSSCPSNATQLAGCLSQLHSGLFLYQGLLQALEGISPELGPTLDTLQLDVADFATTIWQQMEELGMAPALQPTQGAMPAFASAFQRRAGGVLVASHLQSFLEVSYRVLRHLAQP | 0.53 ratio to Neupogen
5 | G-CSF[A37N,Y39T,S63N,P65T,E93N,I95T] (ligand, consensus N-linked glycosylation sites at Asn 37, Asn 63 and Asn 93 (regions 1, 7 and 10)) TPLGPASSLPQSFLLKALEQVRKIQGDGAALQEKLCNTTKLCHPEELVLLGHSLGIPWAPLSNCTSQALQLAGCLSQLHSGLFLYQGLLQALNGTSPELGPTLDTLQLDVADFATTIWQQMEELGMAPALQPTQGAMPAFASAFQRRAGGVLVASHLQSFLEVSYRVLRHLAQP | 0.97 ratio to Neupogen

Now from value to binder:

Row | EC50/Neupogen (reporter activity in cells expressing the G-CSF receptor) | Binder
6 | 0.59 ratio to Neupogen | G-CSF[P57V,W58N,P60T] (ligand, consensus N-linked glycosylation site at Asn 58 (region 2)) TPLGPASSLPQSFLLKALEQVRKIQGDGAALQEKLCATYKLCHPEELVLLGHSLGIVNATLSSCPSQALQLAGCLSQLHSGLFLYQGLLQALEGISPELGPTLDTLQLDVADFATTIWQQMEELGMAPALQPTQGAMPAFASAFQRRAGGVLVASHLQSFLEVSYRVLRHLAQP
7 | 0.9 ratio to Neupogen | G-CSF[S63N,P65T] (ligand, consensus N-linked glycosylation site at Asn 63 (region 7)) TPLGPASSLPQSFLLKALEQVRKIQGDGAALQEKLCATYKLCHPEELVLLGHSLGIPWAPLSNCTSQALQLAGCLSQLHSGLFLYQGLLQALEGISPELGPTLDTLQLDVADFATTIWQQMEELGMAPALQPTQGAMPAFASAFQRRAGGVLVASHLQSFLEVSYRVLRHLAQP
8 | 0.37 ratio to Neupogen | G-CSF[T133N,G135T] (ligand, consensus N-linked glycosylation site at Asn 133 (region 13), replacing the O-linked site) TPLGPASSLPQSFLLKALEQVRKIQGDGAALQEKLCATYKLCHPEELVLLGHSLGIPWAPLSSCPSQALQLAGCLSQLHSGLFLYQGLLQALEGISPELGPTLDTLQLDVADFATTIWQQMEELGMAPALQPNQTAMPAFASAFQRRAGGVLVASHLQSFLEVSYRVLRHLAQP
9 | 0.78 ratio to Neupogen | G-CSF[Q67N,L69T] (ligand, consensus N-linked glycosylation site at Asn 67 (region 9)) TPLGPASSLPQSFLLKALEQVRKIQGDGAALQEKLCATYKLCHPEELVLLGHSLGIPWAPLSSCPSNATQLAGCLSQLHSGLFLYQGLLQALEGISPELGPTLDTLQLDVADFATTIWQQMEELGMAPALQPTQGAMPAFASAFQRRAGGVLVASHLQSFLEVSYRVLRHLAQP
10 | 0.94 ratio to Neupogen | G-CSF[P60N,S62T] (ligand, consensus N-linked glycosylation site at Asn 60 (region 4)) TPLGPASSLPQSFLLKALEQVRKIQGDGAALQEKLCATYKLCHPEELVLLGHSLGIPWANLTSCPSQALQLAGCLSQLHSGLFLYQGLLQALEGISPELGPTLDTLQLDVADFATTIWQQMEELGMAPALQPTQGAMPAFASAFQRRAGGVLVASHLQSFLEVSYRVLRHLAQP
